Assay: soluble fraction after stress (log2 fold change); higher = more stays soluble; pooled small domains, quantitative proteomics
Details: stress: pH 4
How it was run: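 Aggregation propensity is read out as the fold change in how much of each domain remains soluble after acid stress. The custom small-domain libraries were pooled, held at pH 4 and analysed with high-throughput quantitative proteomics. On the log2 scale used, higher values mean more of the domain stayed soluble.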

| Sequence | soluble fraction (log2) |
| --- | --- |
| HMSRAMFEMHADWQPTDSIRGLLGRAGLPTDIAKLDQSRIGDFVNHWFGKPDRNTADSWNGLLVGWLKRTQ | -0.787 |
| HMSREEFLAGLEEALAGEVPASVIRENLNYYNSYISQEMAKGRTVDEIVDEIGEPRIVARTIIDSSEAAGE | -0.246 |
| HMSRELVILGNSMLNNALKAFHVSPASIKKKHWDKLILDYHLESKNNILIDIALGKRINVMVAHQLTSIID | ≥ 0.43 |
| HMSREVTVPPLSGLTLRDAARTLAERGLLMEAEGQGAVHRQDPPAGTRVPTGTPVRVFLTLPEQNS | -0.511 |
| HMSRGTLFVDVRGAVAKPGVYELPEKSRVFQAVEAAGGLLPEALERLVNQAAELTDGQQVYIPFEGEE | 0.429 |
| HMSRLLRTDAHLQYAAERGLPVTASAYTPVFAGAKQYTGRIESFDAQTIRFADGPAVERKAVARLEAE | 0.138 |
| HMSRLLTTRQREVFEVATREGFWDVPRRINLSELAKVLGVAKSTLSSQLQRIESAVFHAFTDEIRRQS | 0.313 |
| HMSRMLTVKQREVFDLAMREGYWETPRRITLTMLASLLSVSKSTLSVQLHKIEGTVLSSFSDEVRRRS | -0.011 |
| HMSRQDYLQTIYRLSVGKGYTTNKKIADFLSVSKPSVTEMIGKLQGEGLVAMDGAHIFLTEDGAEQ | 0.108 |
| HMSRVTVDVNPDVLQWAIDKKGKGDIKNKFPKIDEWLNGISKPTIHQLENFAKYVSVPFGYLLLSKPPVE | 0.00473 |
| HMSRYQDIANDIEKDIIEKKYTRKLPEQFELAQKYQTSRVTIVHALKILQNKKLIRTVKGHGTFITS | ≥ 0.43 |
| HMSSDEDELESIIKRVFADNPIELERLQNGEDKLIKFFMGLVMRQTKGKYPPKIIIDLLNKS | -1.54 |
| HMSSDLDQYMKNIRKQHNLSKREFAKQLGISAATIVRIENGITVSPSKNLISKLAYYLQKSEVEILQDIQS | -0.393 |
| HMSSEMATLRSIVDNKQAEKVHGMMVDMFTASAMVQVYDKVNDENQAKMREMLKTQKGFQRMADFALSKI | -0.535 |
| HMSSEPASLVGKTGVAASVLRPSGRVEVNGEYYDAVSINGFIEKGESVFVHKYENAQLYVSKNSE | -0.183 |
| HMSSESIKTDKNVGVGSTLEELEKAYGSDYTLSGKMYRYYQDDNSKYMYFFILNDVVQYYGYGIDV | -1.38 |
| HMSSIDLTARSGRAALKHRLSLLGYEFSKIELETLYVRFIELADEKKLLHDEDLIELVKEKN | -0.655 |
| HMSSIRDVVPEGLLSDREKLVLVLAFDRDLDGPDMARTLGISANTVRVLKARALKKLRQAGIQP | -0.34 |
| HMSSIVLTARSGRAALAYRVKSIGVDLSKDQLDLVYKTFLGFADKKKEIIDTDIPQILKASGI | -0.265 |
| HMSSIYVYPNPTANRIYIQADNIKKAELFDLMGRKVRSTNQPQIDISRLSRGNYILQVKTQNNTQSFKIIK | 0.0347 |
| HMSSKAVLEKFEALFIDQMLQSMRKATVRSELFDSEGIKLYESLFDKEISEELAKSGGLGLTKDLEQQL | -1.35 |
| HMSSKFKIVGEILSIKKSDILYIIEILSNNEVVKATAVEDEIKDLKIGDKILLSSKAFNPIVNK | -1.09 |
| HMSSLTDNFVKALSYYLALSGKSKKEVADGIGIPPTTFSSWSNGKHLPDMDRLQNLATYLGAPVSEFFDFT | 0.051 |
| HMSSPVGIAQATTYVYVRAGHSMQAAKVGVLSPGEKVGVTGRSAQGFSEVVYNGVHRWVGSRYLSPT | ≥ 0.43 |
| HMSSQWWYSAGGERKGPVDFATLRGLYVQGAIDGRTLAWREDMQGWEAVNDIPDLEPLRRAVPPEL | 0.11 |

| Sequence | soluble fraction (log2) |
| --- | --- |
| HMSSRSLSYSDFIERVDAGQVSKVVMDGERLVVVGQDGTSYVTIKPPGDQVTENLSRELISKGVEVEAEPQ | ≥ 0.43 |
| HMSSRSLTYSDFIERVDAGQVDAVTLDGERIVIRAKDGNTYVAIKPQGEDVTGSLTRDLIAKGVDVEAEPQ | 0.0187 |
| HMSSSDYDVYNKAINLMLNLLKEPKSIEEVTASLNITKSQAITWINRALNEGKIIKTNRPVRYVVNN | 0.0142 |
| HMSSSYMVRITTSVLNVRKGPGTNYGITTKVKKGEVYTIVAEEKNGNTTWGKLKSGTGYISLGYTER | -0.145 |
| HMSSSYVYGGNGEIVILSDVSKHLNVYNLNGQKVTDVNLTAGELQRISIATGIYVVGGKKIVV | -0.121 |
| HMSSVGELEVGNIFEGTVNSVRGGKVLLALGNGQMVLAQMDGRVNITPGSSMFFQVKSNDGETVAIRPYTG | 0.156 |
| HMSSWAEGLTERERHTLMWITKGLSNKLIARELGISDSTVKVYVKNLLRKLNVNSRLELAAWVHTHPL | -0.246 |
| HMSSYTQEDVRSGILYMAQLKPRNIEEFVSTLAFSKDDIMDNLSFLVDEGFLKFDADTDTYFNPVPL | -0.604 |
| HMSTADGGYPSIVINDGRVIDTNLQKLGLDRSWLSAELKRQGKGSEKDIFLMTVNQRREVYISVKEA | -0.589 |
| HMSTEAFLGTEGEVVLPLLPDGLGKIRLHVADQDVELPARTGGEPIQIRERVVVVRFRDGIAEVEPAP | -0.525 |
| HMSTEDYLKTIYILESQQGVHGSDVARMLKVTRPTVSIALKALEQEGYVWMDESRLVHLTDSGLQIAKDT | 0.149 |
| HMSTESAHLGERMLNQALRAMHIEPDQITEAHWQKLIRDYGLKKKSEILTDIGLGKRQNVMVAHQLLAMG | -0.143 |
| HMSTFKSYRGKITASSGVNIRTGAGTNYNKNGALTYNSVVTIVDEKKVSGTTWGKLADGRGWISLDYLKK | 0.105 |
| HMSTGGDLTQRERELLGLMARGLSNQEISKRLTIAMPTVKFHVTNILAKLHADNRTEAVLVALKNKLVAL | -0.175 |
| HMSTINGIEKYLSSGLIPYIGPKTAKRIVEKFGLDTLEIIQYNPERLKEIEGIGDKKLKKIVEAFEEQG | -0.333 |
| HMSTISPNAFNFLQQNLNKFSDDAEGKMIKDILSKTTYDEYVKNEKSKTDFNSLLRRQTTTGDDNLNRYIN | 0.072 |
| HMSTKEFTIHAGEWSYRVSQKLENLGLVSDAKKFDQYLEDNGYSSKIKIGHYTISKDADFEEIAKEIT | 0.0658 |
| HMSTKRGEILEFLKDFSARKGYAPSVREIMQAVGLKSTASVHYHLSELHKAGLITVDGTKNRAISLA | 0.0891 |
| HMSTMKSKWFVSSNPIAGVMKYQAQRKKDVNAVDSSENREASGQWYTDKEEAQAIVDKLNAEEQIKEAGK | 0.0846 |
| HMSTMLPFVMRELVELVMKKKALPLGDALYYIYSSKLYKSLLDKSTKLWYSSTLSLYETLEKEKTEEKRRY | -0.802 |
| HMSTMTDAQRHLFANKLSQLPEMGKYSHGTESYQQFAVRIAEMLQTPKKFKELYPYLQKVGFKA | 0.0225 |
| HMSTNYVQVLRAALNGVSGRKLAQQYRVSRDTVAILLRQAKIQGWQRAEDLENITEEDLVALLSG | -0.987 |
| HMSTPLPTGLPRGTIIEYTVQTDETLAIIAAKFNSTVDDIMTRNKITDPNTIYAGQILKVAINLVTP | -0.267 |
| HMSTPVPIEGQPTENLNLRDQPSTSGKILTTIPKGKTVTILSEKNANGWYKVSYNGKTGYVSGSYFKVTK | -0.14 |
| HMSTSERLKQVMEVKGFNLKTFSEQADIPYRTLQNYILTNREPSAESLAKLHSQLGINLNWLMSGKGEMF | 0.109 |

| Sequence | soluble fraction (log2) |
| --- | --- |
| HMSTSIADNSSITYKVRKGDSLASIAKRHGVNINDVMRWNSVITKASQIQPGDMLTLYVRDS | ≥ 0.43 |
| HMSTTALLEKMVRYIRTLPVISQVVLSLHYYRGMELREIASELDITESRASQLHTTAVLGIRDLLSSY | -2.02 |
| HMSTTGIVKWFNEEKGFGFITQDQGGADVFVHYRAIASEGFKTLAEGQKVSFEVEQGQKGLQAANVQA | -0.948 |
| HMSTTHLTASVIKDKVNVRSEADSQNGAIIDKARTGERLLVTDYGNKWTGIVLPDGKRGYIMTEYLQF | 0.22 |
| HMSTTSYTQFMEDAKAGKIARVDIKGREITVTPTEGSRYVITSPGDLWMVDDLRKDGVQVYGPP | 0.137 |
| HMSTTYLNEGDRITLTDSVNIRTSMSETADRVGLAYQGDVVTVIMSYAEGWTKVSWNGQTGYAKTEYL | -0.0679 |
| HMSTVIENVFKNFEVYEIKKGDTFYNIEKRFGVNRQELLVLNPELKEGLKLGMVLKIKEIIP | 0.192 |
| HMSTYTETETAYLKAYSAAGVDGKISDSERGILNMTAEALGITVERTTELEAMFNLTVEEEA | -1.39 |
| HMSVDIWTGAQTGNIEAVKQHLADGVDVNSKSDIGRTALDVAIAFKQPLITDLLRKHGGKTRDELKAAE | -0.397 |
| HMSVEVADITRAYYEGVGFEWWIRSVRLDPNELIVDNDDEGKLYRVPFEINGEEVTFGDPVEVKIRYE | -0.71 |
| HMSVFGDNVARLRAEHGMSQRALAERLEITNGTVAAWESRDTLPDYDRIRQIAEIFDVPIPQLFAKYIP | -1.2 |
| HMSVISVETAKSKALAHAGLTASKVTFIENKLEWDDGRQVYDIEFYTSDYKEYDYTIDAVSGQVLEFDY | 0.114 |
| HMSVKLMEVKGASTVVSRQVREAVSIVFPTSSMRLDLVALKARIEGVDAVKRADVYLRNGILEIQIDER | -0.981 |
| HMSVKLYPNPTRSVTTFATDVDKWYLYDNQGKLVSEGNTKTIDVTAFPVGIYFVKTIKGNNSTFVKLIV | -0.183 |
| HMSVLNLQTDIPKKYTDVLGTSVKGRLNTLVHNVIINSVDRPVIQMSEEVHEAMQGLRIFMFENVYRNPV | 0.22 |
| HMSVLSEQIKEQLMEDIFHKKYKAGDRIVESALARELGVSQASVREALRSLIAMGFLENEPFKGITVR | 0.107 |
| HMSVNAPMPGKIVNVLVSEGQKVNSGDVLLILEAMKMQNEIAATQAGTVKAINVAAGQSVKVGDALVN | -0.147 |
| HMSVPQENKDLLGRSIEIFYAGKTVEAKVTDTGALAPLGRALDLSPATWRAFGASSISDWGVRGVFYRFVA | -0.0838 |
| HMSVSTGTITGSVVNLREEPNTSSKVLDKLPKDTVVYVLSASGEWYNVSYGDKTGWVYGEYLA | -0.478 |
| HMSVTSEIGAKIKYFRKSKHFSLQEMADLLYKSKSTLSKYENGQISIDIETLYAIAKVLGVHVEQLLYSEP | 0.222 |
| HMSVTSIEGRVVYDENANKIGIAKQVGIDSTQSMVLVLTKNDGTEGSISWNNIKKIGEIILLGN | -1.34 |
| HMSWAGRRSLAALEARYRDETGISNLKIKHNGVLGYHIEVPSKSADKLMAPDSGFTHRQTLAGAVR | 0.00623 |
| HMSYDAINGYEPSDLRGSLTLEQTASMLNLPLTDVYARLGLPANYPSGATLKDGAADMGMGLSDFKHQLF | 0.0723 |
| HMSYLDTLPGRRVAAQGAITGDAGTLAVDGDTWSARVEPGAPDVAPGDEVTVLRIDGATLVVRPLP | 0.0453 |
| HMSYPFSEDALKEKIREYLKHNRSINRKVLEAEFHIRKQTALNWLKKLEKSGFLIKEGSRNAPVYFLAE | 0.0835 |
